Assay results as given in US12545899B2, “Luciferase enzymes for use with thermostable luciferins in bioluminescent assays” (Promega Corporation, priority 2018, dated 2026).
Residue numbers refer to the chain shown, from its start. Names may count otherwise.

Legend:
Assay type in all cases: biochemical
[1] = Luminescence at 1 mM D/L-luciferin (Table 11); details: 1 mM substrate, 1 mM ATP
Text: (§1) Tables 10 and 11 include representative results of kinetic analysis of the thermostable variants with D/L luciferin, CS0333, and CS0280. […] MK0135 and MK0137 have amino acid substitutions that improve thermostability relative to MK0133 and MK0134, respectively, while retaining activity on the luciferin analogs CS0333 and CS0280.

[2] = Luminescence at 1 mM CS0333 (Table 11); details: 1 mM substrate, 1 mM ATP
Text: as §1

[3] = Luminescence at 1 mM CS0280 (Table 11); details: 1 mM substrate, 1 mM ATP
Text: as §1

[4] = Kinetic analysis of thermostable variants with D/L-luciferin (Tables 13, 14); details: 2 mM ATP
Text: (§2) Tables 13 and 14 include representative results of kinetic analysis of the thermostable variants with D/L luciferin, CS0333, and CS0280. The panel of enzyme variants highlight amino acid substitutions that further improve upon MK0137 in maximum luminescence (Vmax) or Km in different buffers with the different substrates tested (D/L-luciferin, CS0333, and CS0280). In particular, enzyme variants MK0151 and MK153 show improvements relative to MK0137 across multiple buffers with multiple substrates.

[5] = Kinetic analysis of thermostable variants with CS0333 (Tables 13, 14); details: 2 mM ATP
Text: as §2

[6] = Kinetic analysis of thermostable variants with CS0280 (Tables 13, 14); details: 2 mM ATP
Text: as §2

B1: MK0155: SEQ ID NO: 120; H244W+S193A+N228D+L305F+S306P+I109V+C38R+F55I+Y108F+A316W+Y339M+T342S+V348I+T284A+S313T+K353R+L437R+W510R (protein)
chain: MADKNILYGPEPFYPLEDGTAGEQMFDALSRYAAIPGRIALTNAHTKENVLYEEILKLSCRLAESFKKYGLKQNDTIAVCSENSLQFFLPVIASLYLGIIVAPVNDKFVERELIHSLGIVKPRIVFCSKNTFQKVLNVKSKLKSIETIIILDLNEDLGGYQCLNNFISQNSDSNLDVKKFKPYSFNRDDQVAAIMFSSGTTGLPKGVMLTHKNIVARFSIAKDPTFGDAINPTSAILTVIPFHWGFGMMTTLGYFTCGFRVVLMHTFEEKLFLQSLQDYKVESALLVPTLMAFLAKSALVEKYDFPHLKEIATGGWPLSKEIGEMVKKRFKLNFVRQGMGLSETTSAILITPRGDAKPGSTGKIVPLHAVKVVDPTTGKILGPNEPGELYFKGPMIMKGYYNNEEATKAIIDNDGWLRSGDIAYYDNDGHFYIVDRRKSLIKYKGYQVAPAEIEGILLQHPYIVDAGVTGIPDEAAGELPAAGVVVQTGKYLNEQIVQDYVASQVSTAKRLRGGVKFLDEIPKGSTGKIDRKVLRQMLEKHTNGHHHHHHHH
Vmax (RLU) D/L-luciferin BrightGlo Buffer [1]: 851,342 RLU
Vmax (RLU) D/L-luciferin Detection Reagent Buffer [1]: 74,704 RLU
Vmax (RLU) CS0333 BrightGlo Buffer [2]: 3,609,390 RLU
Vmax (RLU) CS0333 Detection Reagent Buffer [2]: 1,400,780 RLU
Vmax (RLU) CS0280 BrightGlo Buffer [3]: 4,644,970 RLU
Vmax (RLU) CS0280 Detection Reagent Buffer [3]: 62,606 RLU
Km ([4]; BrightGlo Buffer): 0.0804 µM
Vmax (RLU) ([4]; BrightGlo Buffer): 550,291 RLU
Km ([4]; Detection Reagent Buffer): 0.527 µM
Vmax (RLU) ([4]; Detection Reagent Buffer): 22,671 RLU
Km ([5]; BrightGlo Buffer): 7.88 µM
Vmax (RLU) ([5]; BrightGlo Buffer): 1,487,388 RLU
Km ([5]; Detection Reagent Buffer): 126 µM
Vmax (RLU) ([5]; Detection Reagent Buffer): 301,956 RLU
Km ([6]; BrightGlo Buffer): 8.07 µM
Vmax (RLU) ([6]; BrightGlo Buffer): 570,972 RLU
Km ([6]; Detection Reagent Buffer): 798 µM
Vmax (RLU) ([6]; Detection Reagent Buffer): 32,480 RLU

B2: MK0157: SEQ ID NO: 122; H244W+S193A+N228D+L305F+S306P+I109V+C38R+F55I+Y108F+A316W+Y339M+T342S+V348I+T284A+T289S+K353R+D435G+L437R (protein)
chain: B1 chain with C257R, D435G, R437L, R510W
Vmax (RLU) D/L-luciferin BrightGlo Buffer [1]: 573,187 RLU
Vmax (RLU) D/L-luciferin Detection Reagent Buffer [1]: 75,012 RLU
Vmax (RLU) CS0333 BrightGlo Buffer [2]: 4,827,260 RLU
Vmax (RLU) CS0333 Detection Reagent Buffer [2]: 3,810,820 RLU
Vmax (RLU) CS0280 BrightGlo Buffer [3]: 3,598,730 RLU
Vmax (RLU) CS0280 Detection Reagent Buffer [3]: 159,336 RLU
Km ([4]; BrightGlo Buffer): 0.1 µM
Vmax (RLU) ([4]; BrightGlo Buffer): 590,903 RLU
Km ([4]; Detection Reagent Buffer): 0.27 µM
Vmax (RLU) ([4]; Detection Reagent Buffer): 32,485 RLU
Km ([5]; BrightGlo Buffer): 4.51 µM
Vmax (RLU) ([5]; BrightGlo Buffer): 2,835,770 RLU
Km ([5]; Detection Reagent Buffer): 18.7 µM
Vmax (RLU) ([5]; Detection Reagent Buffer): 515,775 RLU
Km ([6]; BrightGlo Buffer): 4.49 µM
Vmax (RLU) ([6]; BrightGlo Buffer): 951,258 RLU
Km ([6]; Detection Reagent Buffer): 631 µM
Vmax (RLU) ([6]; Detection Reagent Buffer): 87,011 RLU

B3: MK0156: SEQ ID NO: 121; H244W+S193A+N228D+L305F+S306P+I109V+C38R+F55I+Y108F+A316W+Y339M+T342S+V348I+C257R+T289S+S313T+K353R (protein)
chain: B1 chain with T289S, T313S, D435G, R510W
Vmax (RLU) D/L-luciferin BrightGlo Buffer [1]: 796,344 RLU
Vmax (RLU) D/L-luciferin Detection Reagent Buffer [1]: 173,238 RLU
Vmax (RLU) CS0333 BrightGlo Buffer [2]: 828,634 RLU
Vmax (RLU) CS0333 Detection Reagent Buffer [2]: 377,642 RLU
Vmax (RLU) CS0280 BrightGlo Buffer [3]: 753,523 RLU
Vmax (RLU) CS0280 Detection Reagent Buffer [3]: 16,392 RLU
Km ([4]; BrightGlo Buffer): 0.0613 µM
Vmax (RLU) ([4]; BrightGlo Buffer): 1,244,361 RLU
Km ([4]; Detection Reagent Buffer): 0.373 µM
Vmax (RLU) ([4]; Detection Reagent Buffer): 144,242 RLU
Km ([5]; BrightGlo Buffer): 7.16 µM
Vmax (RLU) ([5]; BrightGlo Buffer): 793,473 RLU
Km ([5]; Detection Reagent Buffer): 116 µM
Vmax (RLU) ([5]; Detection Reagent Buffer): 174,991 RLU
Km ([6]; BrightGlo Buffer): 9.12 µM
Vmax (RLU) ([6]; BrightGlo Buffer): 378,264 RLU
Km ([6]; Detection Reagent Buffer): 1210 µM
Vmax (RLU) ([6]; Detection Reagent Buffer): 21,620 RLU
